These results are taken from US20250136692A1.

Assay [1] has as its target hPD-1-HIS (human) (UniProt Q15116). Kind of assay: ELISA, plate-coated PD-1 protein, anti-human IgG detection.
The target is the same in assay [2]. Kind of assay: ELISA, plate-coated PD-1 protein, protocol of Example 1. (In an ELISA, binding on a coated surface is turned into a signal by an enzyme label.)

Positions count from the first letter of the chain named.

Sequence of hPD-1-HIS (human) (Q15116 25-167 limits assumed): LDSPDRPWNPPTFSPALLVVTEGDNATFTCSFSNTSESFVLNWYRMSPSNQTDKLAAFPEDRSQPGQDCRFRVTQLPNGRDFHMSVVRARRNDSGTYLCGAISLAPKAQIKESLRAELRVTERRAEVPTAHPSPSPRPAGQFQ

B1: 4G9-1 (antibody, human IgG1, kappa, V domains shown)
VH: QVQLVQSGAEVKKPGASVKVSCKASGYTFTTYGINWVRQATGQGLEWMGWINTYSGVPGYAQKFQGRVTMTLNTSISTAYMELSSLRSEDTAVYYCARGGRGIAYWGQGTLVTVSS
VL: DIQLTQSPSSLSASVGDRVTITCRASQGISNSLAWFQQKPGKVPKRLIYAASNLQSGVPSRFSGSGSGTEFTLTISSLQPEDFATYYCQQSYSTPYTFGQGTKLEIKR
B1 had a hPD-1-HIS Binding (OD 450) with hPD-1-HIS (human) [1] of 0.874 OD 450.

B2: 4G9-9 (antibody, human IgG1, kappa, V domains shown)
VH: B1 VH with E46K, G100V, R101H, I103V, A104S
VL: EIVMTQSPATLSVSPGERATLSCRASQSIGTSLHWYQQKPGGAPRLLIKYASESITGIPARFSGSGSGTEFTLTISSLQSEDFAVYYCQQSNSWPYTFGQGTKLEIKR
B2 showed a hPD-1-HIS Binding (OD 450) with hPD-1-HIS (human) [1] of 0.31 OD 450.

B3: 4G9-8 (antibody, human IgG1, kappa, V domains shown)
VH: B1 VH with G99V, G100E, I103D
VL: EIVLTQSPSSLSASVGDRVTITCRASQDIRRDFGWYQQKPGLAPELLIYDASRLRSGVPSRFSGSGSGTLFTFTITNLQPEDFATYYCLQDYDFPRTFGQGTKVDIKR
B3: in the assay with hPD-1-HIS (human) [1], the hPD-1-HIS Binding (OD 450) stood at 0.346 OD 450.

B4: 4G9-10 (antibody, human IgG1, kappa, V domains shown)
VH: B1 VH with G100S, R101K, I103D
VL: DIVMTQSPSSLSASVGDRVTITCRASQSISTWLAWFQQKPGKAPKLLIYKASSLKSGVPSRFSGSGSGTEFTLTISSLQPDDFATYYCQQSYSTPWTFGQGTKLEIKR
As for B4, the hPD-1-HIS Binding (OD 450) with hPD-1-HIS (human) [1] stood at 0.287 OD 450.

B5: 4G9-3 (antibody, human IgG1, kappa, V domains shown)
VH: B1 VH with G102E, I103S
VL: B2 VL
In turn, B5 yielded a hPD-1-HIS Binding (OD 450) with hPD-1-HIS (human) [1] of 0.451 OD 450.

B6: 4G9-5 (antibody, human IgG1, kappa, V domains shown)
VH: B1 VH with G100V, G102V, I103F, A104Y, Y105H
VL: B2 VL
For the molecule B6, in the assay with hPD-1-HIS (human) [1], the hPD-1-HIS Binding (OD 450) was 0.383 OD 450.

B7: 5C2-3 (antibody, human IgG1, kappa, V domains shown)
VH: QVQLVQSGAEVKKPGASVKVSCKASGYTFTSYWMHWVRQAPGQGLEWMGRIHPSDSDTNYNQKFKGRVTLTVDTSTSTAYMELSSLRSEDTAVYYCAPKGNYVVRFAYWGQGTLVTVSS
VL: DIVMTQSPSSLSASVGDRVTITCRASQGIRNDLGWYQQKPGKAPKLLIYAASSLQSGVPSRFSGSGSDTDFTLTISSLQPEDFATYYCLQDYNYPWTFGQGTKVDIKR
As for B7, the hPD-1-HIS Binding (OD 450) in the assay with hPD-1-HIS (human) [2] was determined as 0.345 OD 450.

B8: 5C2-6 (antibody, human IgG1, kappa, V domains shown)
VH: B7 VH with K99Y, G100V, N101D, Y102L, V103E, V104S, R105G
VL: DIAMTQTPSSLSASIGDRVTIACRASQGISSALAWYQQKPGRTPKLLIFDASTLQSGVPSRFSGSGSGTDFTLTISSLQPEDFATYYCQQFNTYSSVTFGQGTRLEIKR
In the case of B8, in the assay with hPD-1-HIS (human) [2], the hPD-1-HIS Binding (OD 450) turned out to be 0.267 OD 450.

B9: 5C2-1 (antibody, human IgG1, kappa, V domains shown)
VH: QVQLVQSGAEVKKPGASVKVSCKASGYTFNSYWMHWVRQAPGQGLEWMGRIHPRGIHTNYNQKFKGRVTLTVDTSTSTAYMELSSLRSEDTAVYYCAPSSSYAWAFAHWGQGTLVTVSS
VL: DIQMTQSPSSLSASVGDRVTITCRASQDVSTALAWYQQKPGKAPKLLIYWASTRHSGVPDRFSGSGSGTDFTLTISSLQPEDFATYYCQQHYRSPGTFGGGTKVEIKR
As for B9, the hPD-1-HIS Binding (OD 450) in the assay with hPD-1-HIS (human) [2] amounted to 0.791 OD 450.

B10: 5C2-5 (antibody, human IgG1, kappa, V domains shown)
VH: QVQLVQSGAEVKKPGASVKVSCKASGYTFGIYWMHWVRQAPGQGLEWMGRILPSNGYTNYNQKFKGRVTLTVDTSTSTAYMELSSLRSEDTAVYYCAPYGIYTRDFSHWGQGTLVTVSS
VL: B9 VL with H91R, Y92D, R93T, S94T, G96R
Molecule B10 gave a hPD-1-HIS Binding (OD 450) in the assay with hPD-1-HIS (human) [2] of 0.286 OD 450.

B11: 5C2-4 (antibody, human IgG1, kappa, V domains shown)
VH: B7 VH with S31R, S54T, D57V, K99D, G100V, V103A, V104R, R105A, Y108H
VL: B9 VL with R93G, G96W
As to B11, the hPD-1-HIS Binding (OD 450) in the assay with hPD-1-HIS (human) [2] was found to be 0.312 OD 450.

B12: 5C2-9 (antibody, human IgG1, kappa, V domains shown)
VH: QVQLVQSGAEVKKPGASVKVSCKASGQTFTNYLMHWVRQAPGQGLEWMGRIPLSDRDTNYNQKFKGRVTLTVDTSTSTAYMELSSLRSEDTAVYYCAPYGRSASGFSSWGQGTLVTVSS
VL: B9 VL with H91G, Y92S, R93S, S94T, G96L
The molecule B12 gave a hPD-1-HIS Binding (OD 450) with hPD-1-HIS (human) [2] of 0.255 OD 450.

B13: 5C2-7 (antibody, human IgG1, kappa, V domains shown)
VH: B7 VH with Q43M, S54I, D55Y, S56R, K99Y, G100V, V103G, V104D, R105G
VL: B9 VL with S10T, S56I, Q89H, H91D, R93I, S94T, G96R
Turning to B13, the hPD-1-HIS Binding (OD 450) in the assay with hPD-1-HIS (human) [2] turned out to be 0.264 OD 450.

B14: 5C2-2 (antibody, human IgG1, kappa, V domains shown)
VH: QVQLVQSGAEVKKPGASVKVSCKASGQTFTSYRMHWVRQAPGQGLEWMGRILPIRSDTNYNQKFKGRVTLTVDTSTSTAYMELSSLRSEDTAVYYCARDAGYGSLFAAWGQGTLVTVSS
VL: B9 VL with Y92D, R93S
For B14, the hPD-1-HIS Binding (OD 450) with hPD-1-HIS (human) [2] was found to be 0.395 OD 450.

B15: 5C2-8 (antibody, human IgG1, kappa, V domains shown)
VH: QVQLVQSGAEVKKPGASVKVSCKASGYTFNSYLMHWVRQAPGMGLEWMGRIRPNYSDTNYNQKFKGRVTLTVDTSTSTAYMELSSLRSEDTAVYYCAPYGNNASGFSYWGQGTLVTVSS
VL: B9 VL with G96W
B15 displayed a hPD-1-HIS Binding (OD 450) in the assay with hPD-1-HIS (human) [2] of 0.262 OD 450.
